Target: paclitaxel-stabilised microtubule polymerised from bovine αβ-tubulin (bovine) (UniProt Q6B856)
Sequence of UniProt Q6B856 (Q6B856 whole entry, looked up): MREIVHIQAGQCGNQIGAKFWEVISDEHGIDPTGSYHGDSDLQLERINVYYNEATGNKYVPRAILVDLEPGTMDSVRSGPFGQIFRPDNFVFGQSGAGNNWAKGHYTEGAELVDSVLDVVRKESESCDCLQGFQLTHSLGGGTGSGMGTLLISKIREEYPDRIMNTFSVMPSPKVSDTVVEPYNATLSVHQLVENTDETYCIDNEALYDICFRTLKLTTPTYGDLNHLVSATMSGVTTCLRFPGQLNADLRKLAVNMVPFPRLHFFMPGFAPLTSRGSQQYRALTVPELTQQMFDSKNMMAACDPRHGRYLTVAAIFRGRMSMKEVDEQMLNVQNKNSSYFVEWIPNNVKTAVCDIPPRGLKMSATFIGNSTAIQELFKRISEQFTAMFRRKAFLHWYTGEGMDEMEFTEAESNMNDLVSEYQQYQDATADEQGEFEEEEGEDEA

Row | K (0.5 MT) of the steady-state MT-activated ATPase (10 nM motor domain, paclitaxel-stabilised MTs, 20°C) | Molecule
1 | 12.7 µM | human kinesin-1 (Kin1) motor domain construct (Kif5A, residues 1–340) (from UniProt Q12840 1-340) (domain or fragment)
2 | 0.0537 µM | human kinesin-3 (Kin3) motor domain construct (Kif1A, residues 1–361) (domain or fragment) MAGASVKVAVRVRPFNSREMSRDSKCIIQMSGSTTTIVNPKQPKETPKSFSFDYSYWSHTSPEDINYASQKQVYRDIGEEMLQHAFEGYNVCIFAYGQTGAGKSYTMMGKQEKDQQGIIPQLCEDLFSRINDTTNDNMSYSVEVSYMEIYCERVRDLLNPKNKGNLRVREHPLLGPYVEDLSKLAVTSYNDIQDLMDSGNKARTVAATNMNETSSRSHAVFNIIFTQKRHDAETNITTEKVSKISLVDLAGSERADSTGAKGTRLKEGANINKSLTTLGKVISALAEMDSGPNKNKKKKKTDFIPYRDSVLTWLLRENLGGNSRTAMVAALSPADINYDETLSTLRYADRAKQIRCNAVIN
